± gives the standard error. This sample holds only a part of the variants without activity.
B1: glmS ribozyme (parent)
chain: AUAAAAGCGCCAGAACUACAGAAAUGUAGUUGACGAGGAGGAGGUUUAUCGAAUUUUCGGCGGAUGCCUCCAAA

Columns and labels:
Conditions in all cases: with glucosamine-6-phosphate
glucosamine-6-phosphate [1] = variants of: B1; assay: self-cleavage kobs at 640 uM GlcN6P; higher = faster cleavage; RNA array
Method in brief: (§1)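 Barcoded ribozyme variants on sequenced MiSeq chips were transcribed in situ by E. coli RNA polymerase and followed at 37 °C through a hybridised Cy3 probe. Glucosamine-6-phosphate at 40 μM to 10 mM in HEPES/KCl/Mg(OAc)2 buffer was flowed in, and tiles were imaged over ~14 h. Signals were normalised to baseline and to non-cleaving reference variants, and per-tile medians were fit to one- or two-exponential decays to give kobs. Weighted Michaelis–Menten fits across concentrations gave kcat and KM.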

glucosamine-6-phosphate [2] = variants of: B1; assay: self-cleavage kobs at 2500 uM GlcN6P; higher = faster cleavage; RNA array
Method in brief: as §1

glucosamine-6-phosphate [3] = variants of: B1; assay: self-cleavage kobs at 10000 uM GlcN6P; higher = faster cleavage; RNA array
Method in brief: as §1

Variant | self-cleavage kobs at 640 uM GlcN6P (glucosamine-6-phosphate [1]) [s⁻¹] | self-cleavage kobs at 2500 uM GlcN6P (glucosamine-6-phosphate [2]) [s⁻¹] | self-cleavage kobs at 10000 uM GlcN6P (glucosamine-6-phosphate [3]) [s⁻¹]
C16U G51U A64G C68A C71A | < 1e-05 | < 1e-05 | –
A14G U49C | < 1e-05 | – | –
A15G G38A G66U | < 1e-05 | – | –
C16G G29A A39C | 0.000119 ± 2.9e-05 | 0.00027 ± 6.6e-05 | –
A15U U30G U69A | 0.000116 ± 2.5e-05 | 0.000105 ± 2.9e-05 | –
A14U G44U U69C C71A | < 1e-05 | – | < 1e-05
C16G G29U G35A | < 1e-05 | – | –
C16U C61A G63U | < 1e-05 | – | –
A15C A64C C71U | < 1e-05 | – | –
C16A G43U | < 1e-05 | – | < 1e-05
A14G G44U U46A | 0.000181 ± 4.5e-05 | 0.000253 ± 8.6e-05 | –
A15C C16G A39C | 3.83e-05 ± 1.7e-05 | 0.000198 ± 3.4e-05 | –
A15U G37A | 0.000117 ± 2.4e-05 | 0.000103 ± 2.8e-05 | 0.000568 ± 0.00011
A15U G35C C50U | < 1e-05 | – | –
A15G G29U C70G | 0.000143 ± 5e-05 | 9.63e-05 ± 3.6e-05 | –
A15G G29U C70U | 0.000127 ± 2.4e-05 | 9.76e-05 ± 3.9e-05 | –
A15G C58A C68G | 0.000265 ± 8.6e-05 | – | –
C16G G62U G66C | < 1e-05 | – | –
A14G G37A A52G | 5.33e-05 ± 1.3e-05 | 9.21e-05 ± 2e-05 | –
A15U U49C C68G | 0.00159 ± 0.00057 | – | –
C16U A36U G38U U46G | < 1e-05 | < 1e-05 | < 1e-05
A15U U49G A64C | < 1e-05 | – | –

Variant | self-cleavage kobs at 640 uM GlcN6P (glucosamine-6-phosphate [1]) [s⁻¹] | self-cleavage kobs at 2500 uM GlcN6P (glucosamine-6-phosphate [2]) [s⁻¹] | self-cleavage kobs at 10000 uM GlcN6P (glucosamine-6-phosphate [3]) [s⁻¹]
C16U G41A C71A | 7.7e-05 ± 2.1e-05 | 0.000279 ± 7.1e-05 | –
A15U U30A G32C U56C U57C C61G | < 1e-05 | < 1e-05 | –
A14U G29U C50G | 8.61e-05 ± 3.2e-05 | – | –
C16G A39C G41U U56C C67U | < 1e-05 | – | –
C16G U56A C71G | 7.67e-05 ± 1.7e-05 | – | –
A14U U30C U49A C50A C70G | 8.96e-05 ± 2.3e-05 | – | –
A15C G29U U30A | 0.000117 ± 2.7e-05 | 0.000332 ± 0.00011 | –
C16U G29A U31G | 0.00216 ± 0.00066 | 0.0232 ± 0.011 | –
C16U C58U G63U | < 1e-05 | – | < 1e-05
A14G C16G A39U A52C | < 1e-05 | – | –
C16G U54A U65G | 0.000305 ± 0.00011 | 0.000707 ± 0.00023 | –
A15U U31G A48U | < 1e-05 | – | –
A14U G35A G63U | < 1e-05 | – | –
A15U U30A C68A | 0.000134 ± 5.1e-05 | 0.000121 ± 4.8e-05 | –
A14G G35C A48U | < 1e-05 | – | –
C16U G35U U55A | < 1e-05 | – | –
A14G C16A U56A | 0.00547 ± 0.0015 | 0.00293 ± 0.0013 | –
A14U A48G G63C | < 1e-05 | – | –
C16A A53G G62A | < 1e-05 | – | –
A14G U45G C58U G62A | < 1e-05 | < 1e-05 | –
C16U C67G C70U | 5.74e-05 ± 2e-05 | 7.27e-05 ± 2e-05 | –
A15G U30A A39U | 0.00404 ± 0.0016 | 0.00871 ± 0.0024 | 0.0247 ± 0.0076

Variant | self-cleavage kobs at 640 uM GlcN6P (glucosamine-6-phosphate [1]) [s⁻¹] | self-cleavage kobs at 2500 uM GlcN6P (glucosamine-6-phosphate [2]) [s⁻¹] | self-cleavage kobs at 10000 uM GlcN6P (glucosamine-6-phosphate [3]) [s⁻¹]
G21A G44U | 9.22e-05 ± 2.3e-05 | 0.000164 ± 3.3e-05 | –
A14U C34U A52G | < 1e-05 | < 1e-05 | < 1e-05
C16A U55G C58G U65G | < 1e-05 | – | –
C16U A53U G66C | 9.89e-05 ± 2.1e-05 | 0.000105 ± 2.8e-05 | 0.000199 ± 5.3e-05
A15U G41A G44U C50U | < 1e-05 | – | –
C16U G35C A53U C58U | < 1e-05 | < 1e-05 | –
C16A G41U G59A | < 1e-05 | < 1e-05 | –
A15G G44U A52C U69C | < 1e-05 | – | –
A14U U30C C70G | 9.88e-05 ± 3e-05 | 8.37e-05 ± 2.2e-05 | –
A14U U46A C68U | 4.63e-05 ± 1.7e-05 | 0.000119 ± 2e-05 | –
A15U U31C G41U C70U | 3.6e-05 ± 1.4e-05 | – | 6.84e-05 ± 1.3e-05
A14U C34U G35A C71U | < 1e-05 | – | –
A15G G29A G63C | < 1e-05 | – | –
A15U U30A A53U C58A U65C U69A C71G | 4.92e-05 ± 2e-05 | – | –
C16U G21U G35U C70A | 7.72e-05 ± 2.8e-05 | – | –
A15G U57A | 0.000105 ± 2e-05 | 0.000107 ± 2.8e-05 | 0.000392 ± 5.3e-05
C16U A33G C68G | 5.07e-05 ± 2.3e-05 | – | –
A15G G29C G38A U47C C71A | < 1e-05 | < 1e-05 | –
C16U U46C G62U | < 1e-05 | – | –
C16U U45A C70G | 0.000277 ± 6e-05 | 0.000385 ± 9.2e-05 | –
